From patent US20260069728A1, “MULTI-TARGETING COMPOUND AND USE THEREOF” (Chengdu Shetai Medical Technology Co., Ltd., priority 2023, published 2026)

Assays:
[1] = Stability of radioligands in PBS buffer (radio-HPLC); assay type: physicochemical
Experimental: The purpose of this experiment was to test the stability of the radioligands under buffer conditions simulating the physiological environment. This stability is a prerequisite for further animal experiments.
(§1) 1. ^68Ga-SDYD01: ^68Ga-SDYD01 was added to PBS buffer (pH=7.4) and incubated at 37° C. The mixture samples were taken for radio-HPLC analysis after 0.5 hours, 1 hour, and 2 hours of incubation. The stability of ^68Ga-SDYD01 in PBS buffer: the radiochemical purities of ^68Ga-SDYD01 after incubation in PBS for 0.5 hours, 1 hour, and 2 hours were 98%, 97%, and 97%, respectively (FIG. 4).
(§2) 2. ^177Lu-SDYD01: ^177Lu-SDYD01 was added to PBS buffer (pH=7.4) and incubated at 37° C. The mixture samples were taken for radio-HPLC analysis after 24 hours, 48 hours, and 120 hours of incubation. The stability of ^177Lu-SDYD01 in PBS buffer: the radiochemical purities of ^177Lu-SDYD01 after incubation in PBS for 24 hours, 48 hours, and 120 hours were 97%, 96%, and 94%, respectively (FIG. 5).
as §1, with “^68Ga-SDYD02: ^68Ga-SDYD02” for “^68Ga-SDYD01: ^68Ga-SDYD01”, “^68Ga-SDYD02” for “^68Ga-SDYD01”, “96%, 95%” for “98%, 97%,”, “93%,” for “97%,”, “10).” for “4).”
as §2, with “^177Lu-SDYD02: ^177Lu-SDYD02” for “^177Lu-SDYD01: ^177Lu-SDYD01”, “^177Lu-SDYD02” for “^177Lu-SDYD01”, “95%, 91%” for “97%, 96%,”, “87%,” for “94%,”, “11).” for “5).”
as §1, with “1. ^68Ga-SDYD05: ^68Ga-SDYD05” for “1. ^68Ga-SDYD01: ^68Ga-SDYD01”, “of ^68Ga-SDYD05” for “of ^68Ga-SDYD01”, “98%, 96%” for “98%, 97%,”, “and 95%,” for “and 97%,”, “(FIG. 16).” for “(FIG. 4).”
as §2, with “^177Lu-SDYD05: ^177Lu-SDYD05” for “^177Lu-SDYD01: ^177Lu-SDYD01”, “^177Lu-SDYD05” for “^177Lu-SDYD01”, “97%, 96% and” for “97%,”, “96%,” for “96%, and 94%,”, “17).” for “5).”
1. ^68Ga-SDYD06: ^68Ga-SDYD06 was added to PBS buffer (pH=7.4) and incubated at 37° C. The mixture samples were taken for radio-HPLC analysis after 0.5, 1, and 2 hours of incubation. The stability of ^68Ga-SDYD06 in PBS buffer: the radiochemical purities of ^68Ga-SDYD06 after incubation in PBS for 0.5 hours, 1 hour, and 2 hours were 96%, 94% and 93%, respectively (FIG. 22).
2. ^177Lu-SDYD06: ^177Lu-SDYD06 was added to PBS buffer (pH=7.4) and incubated at 37° C. The mixture samples were taken for radio-HPLC analysis after 24 hours, 48 hours, and 120 hours of incubation.
1. ^68Ga-SDYD03: ^68Ga-SDYD03 was added to PBS buffer (pH=7.4) and incubated at 37° C. The mixture samples were taken for radio-HPLC analysis after 0.5 hours, 1 hour, and 2 hours of incubation. The stability of ^68Ga-SDYD03 PBS in PBS buffer: the radiochemical purities of ^68Ga-SDYD03 after incubation in PBS for 0.5 hours, 1 hour, and 2 hours were 96%, 96% and 95%, respectively (FIG. 27).
as §2, with “^177Lu-SDYD03: ^177Lu-SDYD03” for “^177Lu-SDYD01: ^177Lu-SDYD01”, “^177Lu-SDYD03” for “^177Lu-SDYD01”, “are 99%, 96%” for “were 97%, 96%,”, “28). […]” for “5).”

[2] = tested on: subcutaneous xenograft tumors (U87 MG cells); assay: Small animal PET imaging and biodistribution study; assay type: in vivo, NSG mice; conditions: mouse, in vivo
Experimental: (§3) Eleven NSG mice bearing subcutaneous xenograft tumors (U87 MG cells), with tumor sizes approximately 150 mm^3, were used. The mice were intravenously injected via the tail vein with approximately 7.4 MBq of ^68Ga-labeled SDYD01, SDYD02, SDYD03. SDYD04, SDYD05, SDYD06, SDYD07, SDYD08 or SDYD07-1 compounds, or with ^[…]-labeled FAPI-04 or FAP2286 compounds as tracers. Micro PET/CT imaging was performed at 30 min, 60 min, and 120 min post-injection. Static images were acquired in 3D mode for 20 minutes. Reconstruction was performed using the OSEM3D/MAP method to obtain attenuation-corrected PET/CT fusion images.
(§4) NSG mice bearing subcutaneous xenograft tumors (U87 MG cells) were divided into 3 groups, with 11 mice in each group. They were intravenously injected via the tail vein with ^68Ga-labeled SDYD01, SDYD02, SDYD03. SDYD04, SDYD05, SDYD06. SDYD07, SDYD08, or SDYD07-1 compounds, or with ^68Ga-labeled FAPI-04 or FAP2286 compounds as tracers. Tumor-bearing mice injected with ^68Ga-labeled compounds SDYD01, SDYD02, SDYD03, SDYD04, SDYD05, SDYD06, FAPI-04, as well as 68Ga-labeled compounds FAPI-04 and FAP2286, were euthanized at 30 min. 60 min, and 120 min, respectively, for each group. Tumor-bearing mice injected with ^68Ga-labeled compounds SDYD07, SDYD08, and SDYD07-1 were euthanized at 30 min, 60 min, and 90 min, respectively, for each group. Blood, tumors, and other major organs and tissues were collected, weighed, and measured for radioactivity. After radioactive decay correction, the standardized uptake value (SUV) and percentage injected dose per gram of tissue (% ID/g) were calculated. In these figures, (a) represents the PET/CT imaging results, (b) represents the biodistribution results, and (c) represents the relative ratios of radioactive uptake in tumor versus normal tissues.

[3] = Small animal PET imaging and biodistribution study; assay type: in vivo, NSG mice; conditions: NSG, mouse, in vivo, iv, 7.4 MBq, total radioactivity, absolute uptake value in the tumor
Experimental: as §3, §4

SMILES	stability in PBS buffer (in words) [1]	radioactive uptake in the tumor sites (in words) [2]	tissue uptake at 0.5 h [3] [%ID/g]	tissue uptake at 1 h [3] [%ID/g]	radioactive uptake in non-target organs (in words) [2]	target/non-target ratios (in words) [2]	tumor uptake and tumor retention time, comparison (in words) [2]	tissue uptake at 2 h [3] [%ID/g]
CN1C(=O)[C@@H](Cc2ccc(O)cc2)NC(=O)CNC(=O)[C@H](Cc2ccc3ccccc3c2)NC(=O)[C@H](CCCNC(=N)N)NC(=O)[C@H]1CCCNC(=O)c1ccc(CNC(=O)[C@H](CCCCNC(=O)CN2CCN(CC(=O)O)CCN(CC(=O)O)CCN(CC(=O)O)CC2)NC(=O)CCC(=O)NCCOCCOCC(=O)NCCOCCOCC(=O)N2CCN(CCCOc3ccc4nccc(C(=O)NCC(=O)N5CC(F)(F)C[C@H]5C#N)c4c3)CC2)cc1 [^68Ga-SDYD05, metal not drawn]	quite stable in PBS buffer	significant radioactive uptake in the tumor sites	≥ 10	≥ 10				
N#C[C@@H]1CC(F)(F)CN1C(=O)CNC(=O)c1ccnc2ccc(OCCCN3CCN(C(=O)[C@H](CCCCNC(=O)CCN4C(=O)CC(SCC(=O)NCCOCCOCCOCCOCCC(=O)NCCCC[C@@H]5NC(=O)[C@@H](Cc6ccc(O)cc6)NC(=O)[C@H](CC(=O)O)NC(=O)CNC(=O)[C@H](CCCNC(=N)N)NC5=O)C4=O)NC(=O)CCC(C(=O)O)N4CCN(CC(=O)O)CCN(CC(=O)O)CCN(CC(=O)O)CC4)CC3)cc12 (single isomer, unassigned) [^68Ga-SDYD07, metal not drawn]	quite stable in PBS buffer	significant radioactive uptake in the tumor sites	≥ 10	≥ 10	significantly reduced at 60 minutes	significantly increased target/non-target ratios	higher tumor uptake and longer tumor retention time	~10
CCCCCC(=O)N[C@@H]1CSCc2cc(CSCCNC(=O)COCCOCCNC(=O)COCCOCCNC(=O)CSC3CC(=O)N(CCC(=O)N[C@H](CCCCNC(=O)CN4CCN(CC(=O)O)CCN(CC(=O)O)CCN(CC(=O)O)CC4)C(=O)NCc4ccc(C(=O)NCCC[C@@H]5C(=O)N[C@@H](CCCNC(=N)N)C(=O)N[C@@H](Cc6ccc7ccccc7c6)C(=O)NCC(=O)N[C@H](Cc6ccc(O)cc6)C(=O)N5C)cc4)C3=O)cc(c2)CSC[C@@H](C(=O)O)NC(=O)[C@H](Cc2ccccc2)NC(=O)[C@H](CCC(N)=O)NC(=O)C([C@@H](C)O)NC(=O)[C@@H]2CCCN2C(=O)[C@@H]2CCCN2C1=O (single isomer, unassigned) [^68Ga-SDYD06, metal not drawn]	quite stable in PBS buffer	significant radioactive uptake in the tumor sites	≥ 10	≥ 10				
CCCCCC(=O)N[C@H]1CSCc2cc(CSCCNC(=O)[C@H](CCCCNC(=O)CCN3C(=O)CC(SCC(=O)NCCOCCOCCOCCOCCC(=O)NCCCC[C@@H]4NC(=O)[C@@H](Cc5ccc(O)cc5)NC(=O)[C@H](CC(=O)O)NC(=O)CNC(=O)[C@H](CCCNC(=N)N)NC4=O)C3=O)NC(=O)CCC(C(=O)O)N3CCN(CC(=O)O)CCN(CC(=O)O)CCN(CC(=O)O)CC3)cc(c2)CSC[C@@H](C(=O)O)NC(=O)[C@H](Cc2ccccc2)NC(=O)[C@H](CCC(N)=O)NC(=O)C([C@@H](C)O)NC(=O)[C@@H]2CCCN2C(=O)[C@@H]2CCCN2C1=O (single isomer, unassigned) [^68Ga-SDYD08, metal not drawn]	quite stable in PBS buffer	significant radioactive uptake in the tumor sites	≥ 10	≥ 10				
CCCCCC(=O)N[C@@H]1CSCc2cc(CSCCNC(=O)[C@@H](CCCCNC(=O)CN3CCN(CC(=O)O)CCN(CC(=O)O)CCN(CC(=O)O)CC3)NC(=O)COCCOCCNC(=O)COCCOCCNC(=O)CCN3C(=O)CC(SCCNC(=O)CCC(=O)N[C@@H](CCCNC(=N)N)C(=O)N[C@@H](CCCNC(=N)N)C(=O)N[C@@H](Cc4ccc5ccccc5c4)C(=O)N[C@@H]4CSSC[C@@H](C(=O)N[C@@H](CCCNC(=N)N)C(N)=O)NC(=O)[C@H](CCCNC(N)=O)NC(=O)[C@H](CCCNC(=N)N)NC(=O)[C@H](Cc5ccc(O)cc5)NC(=O)[C@@H]5CCCN5C(=O)[C@H](CCCCN)NC(=O)[C@H](CCCCN)NC(=O)[C@H](CCCNC(N)=O)NC(=O)[C@H](Cc5ccc(O)cc5)NC4=O)C3=O)cc(c2)CSC[C@@H](C(=O)O)NC(=O)[C@H](Cc2ccccc2)NC(=O)[C@H](CCC(N)=O)NC(=O)C([C@@H](C)O)NC(=O)[C@@H]2CCCN2C(=O)[C@@H]2CCCN2C1=O (single isomer, unassigned) [^68Ga-SDYD02, metal not drawn]	quite stable in PBS buffer	significant radioactive uptake in the tumor sites	≥ 10	≥ 10				
